Measured values from patent publication US20160304625A1.

Biological target: mIgM proximal domain peptide conjugated to keyhole limpet hemocyanin (human)
Test: ELISA direct binding, mIgM-PD-KLH

ELISA reading: 0.1
Substance: Control mAb (antibody)
